Results reported in patent US20100129369A1 (Eli Lilly, published 2010).

Legend:
human c-Met [1] = molecular target: T1, human c-Met (human, UniProt P08581 25-1390); experiment: cell-based or functional assay
human c-Met [2] = molecular target: T1, human c-Met; experiment: cell-based or functional assay; remark: listed apart in the source
human c-Met [3] = molecular target: T1, human c-Met; experiment: cell-based or functional assay; remark: listed apart in the source
human c-Met [4] = molecular target: T1, human c-Met; experiment: cell-based or functional assay; remark: listed apart in the source
human c-Met [5] = molecular target: T1, human c-Met; experiment: cell-based or functional assay; remark: listed apart in the source
Human c-Met-Flis-Fc ECD [6] = molecular target: T2, Human c-Met-Flis-Fc ECD (human); experiment: ELISA, coated ECD-Fc, antibody 0.000 ng/mL
T2 construct: also called human c-Met extracellular domain (ECD)-Fc-Flis fusion; Human cMet-ECD-Fc-Flis
T2 sequence (chain, as listed by the source limits assumed): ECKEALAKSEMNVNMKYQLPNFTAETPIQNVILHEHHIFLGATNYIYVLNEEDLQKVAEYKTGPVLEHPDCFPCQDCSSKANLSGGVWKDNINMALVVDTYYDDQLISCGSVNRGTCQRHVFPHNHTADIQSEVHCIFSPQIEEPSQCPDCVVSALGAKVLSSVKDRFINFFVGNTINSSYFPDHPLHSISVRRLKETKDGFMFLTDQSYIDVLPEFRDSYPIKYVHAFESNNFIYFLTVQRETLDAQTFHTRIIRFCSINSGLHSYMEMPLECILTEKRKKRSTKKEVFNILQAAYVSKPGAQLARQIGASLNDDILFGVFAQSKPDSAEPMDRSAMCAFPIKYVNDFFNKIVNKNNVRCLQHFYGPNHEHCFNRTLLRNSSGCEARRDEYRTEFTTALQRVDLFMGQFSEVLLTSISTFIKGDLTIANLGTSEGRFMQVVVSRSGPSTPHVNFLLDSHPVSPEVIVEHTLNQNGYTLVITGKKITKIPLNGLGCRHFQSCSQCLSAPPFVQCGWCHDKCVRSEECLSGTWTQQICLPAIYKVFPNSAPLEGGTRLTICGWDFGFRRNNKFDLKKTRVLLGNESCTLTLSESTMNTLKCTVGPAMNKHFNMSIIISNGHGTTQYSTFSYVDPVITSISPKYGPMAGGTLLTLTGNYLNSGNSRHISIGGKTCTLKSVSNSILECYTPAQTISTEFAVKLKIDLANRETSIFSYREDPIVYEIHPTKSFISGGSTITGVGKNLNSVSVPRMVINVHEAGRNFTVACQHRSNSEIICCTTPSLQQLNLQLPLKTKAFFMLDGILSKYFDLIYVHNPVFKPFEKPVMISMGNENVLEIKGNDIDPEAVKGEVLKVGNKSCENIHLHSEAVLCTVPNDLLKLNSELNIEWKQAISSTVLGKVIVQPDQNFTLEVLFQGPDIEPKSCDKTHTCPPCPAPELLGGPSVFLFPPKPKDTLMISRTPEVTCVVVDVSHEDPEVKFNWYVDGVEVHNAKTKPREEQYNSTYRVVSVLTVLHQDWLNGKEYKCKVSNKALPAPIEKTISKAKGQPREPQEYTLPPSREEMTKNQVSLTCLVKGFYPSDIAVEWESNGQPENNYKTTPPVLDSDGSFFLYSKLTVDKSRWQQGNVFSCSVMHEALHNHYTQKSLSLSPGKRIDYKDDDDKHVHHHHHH
Procedure: (§1) Wells of 96-well EIA/RIA high binding plates (Costar, #2592) are coated with 100 μL of 1 μg/mL human c-Met extracellular domain (ECD)-Fc-Flis fusion (SEQ ID NO:72), RON-ECD-Fc (R&D Systems, #1947-MS), or PlexinA2-ECD-Fc (Abnova, Taipei, Taiwan #H00005362-P01) in coating buffer (BioFX Labs, # COAT-1000-01) overnight at 4° C. […] After the plates are washed, 100 μL/well of substrate solution (BioFx, #TMBW-1000-01) are added and the plates are incubated for 10 min. at room temperature. 100 μL/well of stop solution (BioFx, # LSTP-1000-01) are added to stop the reaction. The colorimetric signals are developed and read at 450 nm using a SpectraMax 190 plate reader (Molecular Devices, Sunnyvale, Calif.). c-Met antibody binding to c-Met, RON and PlexinA2 ECDs is proportional to color signal production.

Human c-Met-Flis-Fc ECD [7] = molecular target: T2, Human c-Met-Flis-Fc ECD; experiment: ELISA, coated ECD-Fc, antibody 0.002 ng/mL
Procedure: as §1

Human c-Met-Flis-Fc ECD [8] = molecular target: T2, Human c-Met-Flis-Fc ECD; experiment: ELISA, coated ECD-Fc, antibody 0.010 ng/mL
Procedure: as §1

Human c-Met-Flis-Fc ECD [9] = molecular target: T2, Human c-Met-Flis-Fc ECD; experiment: ELISA, coated ECD-Fc, antibody 0.060 ng/mL
Procedure: as §1

Human c-Met-Flis-Fc ECD [10] = molecular target: T2, Human c-Met-Flis-Fc ECD; experiment: ELISA, coated ECD-Fc, antibody 0.357 ng/mL
Procedure: as §1

Human c-Met-Flis-Fc ECD [11] = molecular target: T2, Human c-Met-Flis-Fc ECD; experiment: ELISA, coated ECD-Fc, antibody 2.143 ng/mL
Procedure: as §1

Human c-Met-Flis-Fc ECD [12] = molecular target: T2, Human c-Met-Flis-Fc ECD; experiment: ELISA, coated ECD-Fc, antibody 12.860 ng/mL
Procedure: as §1

Human c-Met-Flis-Fc ECD [13] = molecular target: T2, Human c-Met-Flis-Fc ECD; experiment: ELISA, coated ECD-Fc, antibody 77.160 ng/mL
Procedure: as §1

Human c-Met-Flis-Fc ECD [14] = molecular target: T2, Human c-Met-Flis-Fc ECD; experiment: ELISA, coated ECD-Fc, antibody 462.963 ng/mL
Procedure: as §1

Human c-Met-Flis-Fc ECD [15] = molecular target: T2, Human c-Met-Flis-Fc ECD; experiment: ELISA, coated ECD-Fc, antibody 2777.778 ng/mL
Procedure: as §1

Human c-Met-Flis-Fc ECD [16] = molecular target: T2, Human c-Met-Flis-Fc ECD; experiment: ELISA, coated ECD-Fc, antibody 16666.667 ng/mL
Procedure: as §1

Human c-Met-Flis-Fc ECD [17] = molecular target: T2, Human c-Met-Flis-Fc ECD; experiment: ELISA, coated ECD-Fc, antibody 100000.000 ng/mL
Procedure: as §1

Human c-Met-Flis-Fc ECD [18] = molecular target: T2, Human c-Met-Flis-Fc ECD; experiment: SPR Biacore, antibody captured, ECD-Fc analyte, 1:1 model
Procedure: (§2) A Biacore® 2000 instrument is used to measure the binding kinetics of c-Met antibodies to human, cynomolgus monkey, and rat c-Met ECDs. Measurements are performed at 25° C. Samples are dissolved in HBS-EP buffer (150 mM sodium chloride, 3 mM EDTA, 0.005% (w/v) surfactant P-20, and 10 mM N-2-hydroxyethylpiperazine-N′-2-ethanesulfonic acid (HEPES) at pH 7.4; #BR-1001-88).
(§3) Binding is evaluated using multiple cycles. Each cycle is performed at a flow rate of 50 μL/min., and consists of the following steps: injection of about 10 μL of a c-Met antibody at 10 μg/mL aiming at a capture of 40-100 RUs, injection of 250 μL of human, cynomolgus, or rat c-Met-Flis-Fc ECD (starting at 100 nM and using two-fold serial dilutions for each cycle) followed by 20 min. for dissociation, and regeneration using about 30 μL of 10 mM glycine hydrochloride, pH 1.5. Association and dissociation rates for each cycle are evaluated using a “1:1 (Langmuir) binding” model in the BIAevaluation software, version 4.1.

[19] = molecular target: T3, Cynomolgus Monkey c-Met-Flis-Fc ECD (cynomolgus monkey); experiment: as above
T3 construct: also called Cynomolgus Monkey cMet-ECD-Fc-Flis; cynomolgus monkey c-Met ECD
T3 sequence (chain, as listed by the source limits assumed): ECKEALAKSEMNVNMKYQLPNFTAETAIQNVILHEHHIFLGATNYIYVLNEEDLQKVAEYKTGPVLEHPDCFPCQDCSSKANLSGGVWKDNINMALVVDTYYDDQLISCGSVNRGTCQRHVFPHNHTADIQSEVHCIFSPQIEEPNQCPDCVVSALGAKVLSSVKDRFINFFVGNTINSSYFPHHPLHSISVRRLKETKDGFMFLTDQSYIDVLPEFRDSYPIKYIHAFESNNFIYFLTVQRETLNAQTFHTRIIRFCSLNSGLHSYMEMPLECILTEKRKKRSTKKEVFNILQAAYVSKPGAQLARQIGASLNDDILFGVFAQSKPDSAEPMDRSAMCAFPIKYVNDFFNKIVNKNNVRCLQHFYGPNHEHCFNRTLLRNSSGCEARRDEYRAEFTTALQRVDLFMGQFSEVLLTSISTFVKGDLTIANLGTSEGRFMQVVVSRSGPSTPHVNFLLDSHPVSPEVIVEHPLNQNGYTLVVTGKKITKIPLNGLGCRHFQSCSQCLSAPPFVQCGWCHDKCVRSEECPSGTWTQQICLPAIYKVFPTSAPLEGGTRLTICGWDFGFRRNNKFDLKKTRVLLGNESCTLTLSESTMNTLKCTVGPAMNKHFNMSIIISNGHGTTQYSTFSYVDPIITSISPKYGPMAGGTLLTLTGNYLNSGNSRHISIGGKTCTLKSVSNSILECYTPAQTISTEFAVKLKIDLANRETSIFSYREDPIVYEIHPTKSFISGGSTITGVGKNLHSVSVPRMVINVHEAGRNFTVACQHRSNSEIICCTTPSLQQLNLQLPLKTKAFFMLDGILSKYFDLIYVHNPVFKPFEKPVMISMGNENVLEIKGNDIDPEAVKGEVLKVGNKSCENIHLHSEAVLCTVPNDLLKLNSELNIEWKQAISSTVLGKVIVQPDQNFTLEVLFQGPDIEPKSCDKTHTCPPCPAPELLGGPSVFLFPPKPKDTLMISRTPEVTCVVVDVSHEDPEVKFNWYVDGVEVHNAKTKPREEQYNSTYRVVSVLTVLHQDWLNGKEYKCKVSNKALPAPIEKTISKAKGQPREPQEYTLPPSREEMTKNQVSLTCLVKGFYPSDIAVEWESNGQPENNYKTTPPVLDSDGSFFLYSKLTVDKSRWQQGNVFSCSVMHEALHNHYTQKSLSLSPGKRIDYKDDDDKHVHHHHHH
Procedure: as §2, §3

Rat c-Met-Flis-Fc ECD [20] = molecular target: T4, Rat c-Met-Flis-Fc ECD (rat); experiment: SPR Biacore, antibody captured, heterogeneous ligand model, first affinity
T4 construct: also called Rat cMet-ECD-Fc-Flis; rat c-Met ECD
T4 sequence (chain, as listed by the source limits assumed): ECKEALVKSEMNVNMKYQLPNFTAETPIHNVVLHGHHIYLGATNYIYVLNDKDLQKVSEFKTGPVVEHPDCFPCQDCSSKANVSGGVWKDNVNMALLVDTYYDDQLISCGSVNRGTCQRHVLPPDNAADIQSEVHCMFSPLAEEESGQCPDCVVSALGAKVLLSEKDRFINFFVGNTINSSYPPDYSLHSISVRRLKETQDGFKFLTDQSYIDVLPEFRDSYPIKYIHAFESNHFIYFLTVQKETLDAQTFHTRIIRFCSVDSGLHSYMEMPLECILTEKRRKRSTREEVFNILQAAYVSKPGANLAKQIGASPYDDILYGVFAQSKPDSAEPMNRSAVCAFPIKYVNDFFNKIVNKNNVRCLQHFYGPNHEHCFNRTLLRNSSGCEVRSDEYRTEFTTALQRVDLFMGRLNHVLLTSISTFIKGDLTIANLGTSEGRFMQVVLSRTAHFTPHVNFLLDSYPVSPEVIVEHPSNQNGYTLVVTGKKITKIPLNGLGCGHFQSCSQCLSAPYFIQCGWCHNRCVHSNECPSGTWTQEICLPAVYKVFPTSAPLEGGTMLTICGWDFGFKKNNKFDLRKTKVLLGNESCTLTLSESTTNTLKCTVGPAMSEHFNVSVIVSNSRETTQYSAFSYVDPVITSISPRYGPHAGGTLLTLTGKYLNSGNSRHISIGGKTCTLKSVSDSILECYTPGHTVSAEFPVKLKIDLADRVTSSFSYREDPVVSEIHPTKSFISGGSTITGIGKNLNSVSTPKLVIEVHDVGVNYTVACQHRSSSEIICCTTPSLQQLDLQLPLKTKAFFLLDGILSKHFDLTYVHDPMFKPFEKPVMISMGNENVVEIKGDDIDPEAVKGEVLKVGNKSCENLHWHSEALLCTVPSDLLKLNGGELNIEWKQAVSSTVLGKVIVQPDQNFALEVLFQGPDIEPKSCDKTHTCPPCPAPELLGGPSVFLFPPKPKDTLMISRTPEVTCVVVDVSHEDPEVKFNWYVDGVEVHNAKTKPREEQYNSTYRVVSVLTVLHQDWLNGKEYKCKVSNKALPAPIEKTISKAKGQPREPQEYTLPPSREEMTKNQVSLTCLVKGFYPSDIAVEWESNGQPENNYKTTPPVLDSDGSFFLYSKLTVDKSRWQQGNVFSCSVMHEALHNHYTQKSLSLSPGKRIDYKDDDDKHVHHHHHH
Procedure: as §2
(§4) Binding is evaluated using multiple cycles. Each cycle is performed at a flow rate of 50 μL/min., and consists of the following steps: injection of about 10 μL of a c-Met antibody at 10 μg/mL aiming at a capture of 40-100 RUs, injection of 250 μL of human, cynomolgus, or rat c-Met-Flis-Fc ECD (starting at 100 nM and using two-fold serial dilutions for each cycle) followed by 20 min. for dissociation, and regeneration using about 30 μL of 10 mM glycine hydrochloride, pH 1.5. […]

Rat c-Met-Flis-Fc ECD [21] = molecular target: T4, Rat c-Met-Flis-Fc ECD; experiment: SPR Biacore, antibody captured, heterogeneous ligand model, second affinity
Procedure: as §2, §4

T1 sequence (P08581 25-1390): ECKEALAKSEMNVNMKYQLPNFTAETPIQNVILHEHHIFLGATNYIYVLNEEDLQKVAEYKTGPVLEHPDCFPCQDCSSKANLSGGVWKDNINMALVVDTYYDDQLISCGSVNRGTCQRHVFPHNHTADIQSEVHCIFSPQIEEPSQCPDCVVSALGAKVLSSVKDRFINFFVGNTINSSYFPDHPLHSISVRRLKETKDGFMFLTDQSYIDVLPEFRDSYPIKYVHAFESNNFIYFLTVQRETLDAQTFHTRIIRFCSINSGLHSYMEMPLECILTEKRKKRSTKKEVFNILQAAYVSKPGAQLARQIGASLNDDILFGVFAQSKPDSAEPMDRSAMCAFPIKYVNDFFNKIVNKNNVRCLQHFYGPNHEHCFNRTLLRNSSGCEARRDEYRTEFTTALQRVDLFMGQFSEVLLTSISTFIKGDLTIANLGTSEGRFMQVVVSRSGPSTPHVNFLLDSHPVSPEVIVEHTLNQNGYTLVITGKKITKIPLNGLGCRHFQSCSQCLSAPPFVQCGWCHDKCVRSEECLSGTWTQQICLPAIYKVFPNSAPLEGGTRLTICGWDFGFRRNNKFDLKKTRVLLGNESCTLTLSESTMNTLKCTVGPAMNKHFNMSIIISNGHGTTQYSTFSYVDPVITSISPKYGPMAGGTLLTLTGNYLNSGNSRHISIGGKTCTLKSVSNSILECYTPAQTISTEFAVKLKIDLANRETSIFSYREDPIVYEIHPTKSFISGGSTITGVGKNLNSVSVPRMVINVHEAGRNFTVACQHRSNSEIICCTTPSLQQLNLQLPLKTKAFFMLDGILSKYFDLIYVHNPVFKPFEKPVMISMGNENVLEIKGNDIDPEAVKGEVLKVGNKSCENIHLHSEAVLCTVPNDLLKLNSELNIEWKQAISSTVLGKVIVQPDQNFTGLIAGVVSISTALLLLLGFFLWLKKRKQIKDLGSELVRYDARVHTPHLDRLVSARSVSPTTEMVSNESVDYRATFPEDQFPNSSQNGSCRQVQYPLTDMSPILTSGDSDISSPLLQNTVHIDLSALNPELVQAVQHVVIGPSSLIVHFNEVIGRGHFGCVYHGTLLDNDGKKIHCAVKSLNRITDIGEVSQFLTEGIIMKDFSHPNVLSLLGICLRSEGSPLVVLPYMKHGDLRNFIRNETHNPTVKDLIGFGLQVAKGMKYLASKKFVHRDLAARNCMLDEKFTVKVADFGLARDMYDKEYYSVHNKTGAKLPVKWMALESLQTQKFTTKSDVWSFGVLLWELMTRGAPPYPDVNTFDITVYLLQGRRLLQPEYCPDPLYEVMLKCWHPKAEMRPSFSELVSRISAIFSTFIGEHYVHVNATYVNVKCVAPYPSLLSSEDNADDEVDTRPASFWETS

B1: C8-6 (antibody, human IgG2, kappa, V domains shown)
VH: QVQLVQSGAEVKKPGASVKVSCKASGYTFTDYYMHWVRQAPGQGLEWMGRVNPNRGGTTYNQKFEGRVTMTTDTSTSTAYMELRSLRSDDTAVYYCARTNWLDYWGQGTTVTVSS
VL: DIQMTQSPSSLSASVGDRVTITCSVSSSVSSIYLHWYQQKPGKAPKLLIYSTSNLASGVPSRFSGSGSGTDFTLTISSLQPEDFATYYCIQYSGYPLTFGGGTKVEIKR
3H-Thymidine Incorporation in Caki-1 Cells in the Absence of HGF (AVG CPM), antibody dose 0.1 ng/mL (human c-Met [1]): 16100 CPM | 3H-Thymidine Incorporation in Caki-1 Cells in the Absence of HGF (AVG CPM), antibody dose 0.4 ng/mL (human c-Met [1]): 14600 CPM | 3H-Thymidine Incorporation in Caki-1 Cells in the Absence of HGF (AVG CPM), antibody dose 2.6 ng/mL (human c-Met [1]): 14100 CPM | 3H-Thymidine Incorporation in Caki-1 Cells in the Absence of HGF (AVG CPM), antibody dose 15.4 ng/mL (human c-Met [1]): 13700 CPM | 3H-Thymidine Incorporation in Caki-1 Cells in the Absence of HGF (AVG CPM), antibody dose 92.6 ng/mL (human c-Met [1]): 12800 CPM | 3H-Thymidine Incorporation in Caki-1 Cells in the Absence of HGF (AVG CPM), antibody dose 555.6 ng/mL (human c-Met [1]): 13500 CPM | 3H-Thymidine Incorporation in Caki-1 Cells in the Absence of HGF (AVG CPM), antibody dose 3333.3 ng/mL (human c-Met [1]): 13200 CPM | 3H-Thymidine Incorporation in Caki-1 Cells in the Absence of HGF (AVG CPM), antibody dose 20000.0 ng/mL (human c-Met [1]): 13200 CPM | 3H-Thymidine Incorporation in Primary Human Hepatocytes in the Absence of HGF (average), dose 0.0032 ug/mL (human c-Met [2]): 736 | 3H-Thymidine Incorporation in Primary Human Hepatocytes in the Absence of HGF (average), dose 0.016 ug/mL (human c-Met [2]): 770 | 3H-Thymidine Incorporation in Primary Human Hepatocytes in the Absence of HGF (average), dose 0.08 ug/mL (human c-Met [2]): 792 | 3H-Thymidine Incorporation in Primary Human Hepatocytes in the Absence of HGF (average), dose 0.4 ug/mL (human c-Met [2]): 802 | 3H-Thymidine Incorporation in Primary Human Hepatocytes in the Absence of HGF (average), dose 2 ug/mL (human c-Met [2]): 892 | 3H-Thymidine Incorporation in Primary Human Hepatocytes in the Absence of HGF (average), dose 10 ug/mL (human c-Met [2]): 1040 | Tubular Morphogenesis Agonist activity (fold stimulation) in HepG2 cells, antibody 50 ug/ml (human c-Met [3]): 1.2 fold stimulation | Percent of DU145 Cells in Colonies (scatter assay), antibody 20 ug/mL (human c-Met [4]): 23.3% | Staurosporine-Induced Apoptosis in Caki-1 Cells, Average A450 nm, antibody dose 3 ng/mL (human c-Met [5]): 1.09 A450 nm | Staurosporine-Induced Apoptosis in Caki-1 Cells, Average A450 nm, antibody dose 30 ng/mL (human c-Met [5]): 1.02 A450 nm | Staurosporine-Induced Apoptosis in Caki-1 Cells, Average A450 nm, antibody dose 300 ng/mL (human c-Met [5]): 0.97 A450 nm | Staurosporine-Induced Apoptosis in Caki-1 Cells, Average A450 nm, antibody dose 3000 ng/mL (human c-Met [5]): 0.92 A450 nm | Staurosporine-Induced Apoptosis in Caki-1 Cells, Average A450 nm, antibody dose 30000 ng/mL (human c-Met [5]): 0.96 A450 nm

B2: D11-S17Y (antibody, human IgG2, kappa, V domains shown)
VH: QVQLVQSGAEVKKPGSSVKVSCKASGYTFTSRYIHWVRQAPGQGLEWMGWIYPVTGDTYYNEKFKGRVTITADKSTSTAYMELSSLRSEDTAVYYCARGYGAFYYWGQGTLVTVSS
VL: EIVLTQSPGTLSLSPGERATLSCSVSSSISSTNLHWYQQKPGQAPRLLIYGTSYLASGIPDRFSGSGSGTDFTLTISRLEPEDFAVYYCQQWSSYPYSFGQGTKLEIKR
notes: Human engineered IgG2, kappa
Average A450 nm (Human c-Met-Flis-Fc ECD [6]): 0.315 A450 nm | Average A450 nm (Human c-Met-Flis-Fc ECD [7]): 0.309 A450 nm | Average A450 nm (Human c-Met-Flis-Fc ECD [8]): 0.314 A450 nm | Average A450 nm (Human c-Met-Flis-Fc ECD [9]): 0.374 A450 nm | Average A450 nm (Human c-Met-Flis-Fc ECD [10]): 0.789 A450 nm | Average A450 nm (Human c-Met-Flis-Fc ECD [11]): 2.14 A450 nm | Average A450 nm (Human c-Met-Flis-Fc ECD [12]): 4 A450 nm | Average A450 nm (Human c-Met-Flis-Fc ECD [13]): 4 A450 nm | Average A450 nm (Human c-Met-Flis-Fc ECD [14]): 4 A450 nm | Average A450 nm (Human c-Met-Flis-Fc ECD [15]): 4 A450 nm | Average A450 nm (Human c-Met-Flis-Fc ECD [16]): 4 A450 nm | Average A450 nm (Human c-Met-Flis-Fc ECD [17]): 4 A450 nm | Kd (Human c-Met-Flis-Fc ECD [18]): 4.2 nM | koff (Human c-Met-Flis-Fc ECD [18]): 0.00028 s⁻¹ | kon (Human c-Met-Flis-Fc ECD [18]): 70000 M⁻¹ s⁻¹ | Kd [19]: 5.1 nM | koff [19]: 0.00036 s⁻¹ | kon [19]: 70000 M⁻¹ s⁻¹ | Kd (Rat c-Met-Flis-Fc ECD [20]): 286 nM | koff (Rat c-Met-Flis-Fc ECD [20]): 0.0189 s⁻¹ | kon (Rat c-Met-Flis-Fc ECD [20]): 66000 M⁻¹ s⁻¹ | Kd (Rat c-Met-Flis-Fc ECD [21]): 1.2 nM | koff (Rat c-Met-Flis-Fc ECD [21]): 0.0003 s⁻¹ | kon (Rat c-Met-Flis-Fc ECD [21]): 250000 M⁻¹ s⁻¹
